Test results taken from PMC7326820, “Characterization of Purple Acid Phosphatase Family and Functional Analysis of GmPAP7a/7b Involved in Extracellular ATP Utilization in Soybean” (Frontiers in Plant Science, 2020).

B1: GmPAP7b (Glycine max) (protein)
chain: MASSLNQRMVFPVMVVVGMFCLLVTPSIAELPRFKHPPKKQQSLNILVLGDWGRKGTYNQSLVANQMGIVGEKLDIDFVISTGDNFYEDGLKGVDDPAFYQSFIHMYTAPSLQKTWYTVLGNHDYRGDVEAQLSPILKQKDSRWLCMRSFILDGEIVEFFFVDTTPFVEEYFTDPGEHTYDWEGVLPRLAYVSKLLKDVDSALAQSKAKWKMVVGHHTINSAGHHGSTEDLKQLLVPILEANNVDAYINGHDHCLQHIIDNNNGIHFITSGGGSKAWSGDVKPWKLEELKLYYDGQGFMSMQITKSTAYIIFYDAFGKVLHTWSISKDRNVAAWI
B2: GmPAP7a (Glycine max) (protein)
chain: MASSLNQRMLFPLMFVIGMFCLMVTPSIAELPIFKHPPKKQQSLNILVLGDWGRKGTYNQSLVANQMGIVGEKLDIDFVISTGDNFYEDGLKGVDDPAFYQSFVDMYTAPSLQKTWYTVLGNHDYRGDVGAQLSPILKQKDSRWLCMRSFILDGEIVEFFFVDTTPFVEEYFTDPGEHTYDWEGVLPRLAYLSELLKDVDLALAQSKAKWKMVVGHHTINSAGHHGNTEELKQLLVPILEANDVDAYINGHDHCLQHIIDNNSGIHFITSGGGSKAWSGDVKPWKLEELKLYYDGQGFMSMQITKSKADIIFYDAFGKVLHTWSISKDRNVAAWI

Substrate: Nc1ncnc2c1ncn2[C@@H]1O[C@H](COP(=O)(O)OP(=O)(O)OP(=O)(O)O)[C@@H](O)[C@H]1O
Experiment: Pi release, Lineweaver-Burk plot
Format: biochemical, Glycine max
Details: pH and temperature not stated for kinetics (substrate tests in 45 mM Na-acetate pH 5.0)

Protein	Km [µM]
B1	66
B2	110
